B1: Storkhead-box protein 2, residues 64 to 141; numbered along this chain, Q9P2F5 (parent)
chain: SPISQSQFIPLGEILCLAISAMNSARKPVTQEALMEHLTTCFPGVPTPSQEILRHTLNTLVRERKIYPTPDGYFIVTP

± gives the uncertainty stated by the source.

The variants in this data set derive from B1. The data set is described as follows: abundance fitness (aPCA) (normalised: wild type 0, dead -1); higher = more abundant; growth selection in yeast, the domain comes from the species named. Particulars: Homo sapiens.
As for SPISQHQFIPLGEILCLAISAMNSARKPVTQEALMEHLTTCFPGVPTPSQEILRHTLNTLVRERKIYPTPDGYFIVTP [S6H], the abundance fitness is -0.334 ± 0.26. SPISQNQFIPLGEILCLAISAMNSARKPVTQEALMEHLTTCFPGVPTPSQEILRHTLNTLVRERKIYPTPDGYFIVTP [S6N]: the abundance fitness was -0.033 ± 0.078. For SPISQTQFIPLGEILCLAISAMNSARKPVTQEALMEHLTTCFPGVPTPSQEILRHTLNTLVRERKIYPTPDGYFIVTP [S6T], the abundance fitness is -0.079 ± 0.058. For SPISQVQFIPLGEILCLAISAMNSARKPVTQEALMEHLTTCFPGVPTPSQEILRHTLNTLVRERKIYPTPDGYFIVTP [S6V] the value was -0.171 ± 0.035; for SPISQWQFIPLGEILCLAISAMNSARKPVTQEALMEHLTTCFPGVPTPSQEILRHTLNTLVRERKIYPTPDGYFIVTP [S6W], -0.246 ± 0.056; for SPISQIQFIPLGEILCLAISAMNSARKPVTQEALMEHLTTCFPGVPTPSQEILRHTLNTLVRERKIYPTPDGYFIVTP [S6I], -0.148 ± 0.061.

On to SPISQKQFIPLGEILCLAISAMNSARKPVTQEALMEHLTTCFPGVPTPSQEILRHTLNTLVRERKIYPTPDGYFIVTP [S6K], for which the abundance fitness was -0.126 ± 0.075.

Turning to SPISQYQFIPLGEILCLAISAMNSARKPVTQEALMEHLTTCFPGVPTPSQEILRHTLNTLVRERKIYPTPDGYFIVTP [S6Y], the abundance fitness was -0.206 ± 0.078. For SPISQPQFIPLGEILCLAISAMNSARKPVTQEALMEHLTTCFPGVPTPSQEILRHTLNTLVRERKIYPTPDGYFIVTP [S6P] the value was -0.07 ± 0.055; for SPISQQQFIPLGEILCLAISAMNSARKPVTQEALMEHLTTCFPGVPTPSQEILRHTLNTLVRERKIYPTPDGYFIVTP [S6Q], -0.069 ± 0.087. Turning to SPISQMQFIPLGEILCLAISAMNSARKPVTQEALMEHLTTCFPGVPTPSQEILRHTLNTLVRERKIYPTPDGYFIVTP [S6M], the abundance fitness was -0.123 ± 0.079.

On to SPISQRQFIPLGEILCLAISAMNSARKPVTQEALMEHLTTCFPGVPTPSQEILRHTLNTLVRERKIYPTPDGYFIVTP [S6R], for which the abundance fitness was -0.062 ± 0.034.

Regarding SPISQGQFIPLGEILCLAISAMNSARKPVTQEALMEHLTTCFPGVPTPSQEILRHTLNTLVRERKIYPTPDGYFIVTP [S6G], the abundance fitness is -0.041 ± 0.032. For SPISQSFFIPLGEILCLAISAMNSARKPVTQEALMEHLTTCFPGVPTPSQEILRHTLNTLVRERKIYPTPDGYFIVTP [Q7F] the value was -0.065 ± 0.067; for SPISQSSFIPLGEILCLAISAMNSARKPVTQEALMEHLTTCFPGVPTPSQEILRHTLNTLVRERKIYPTPDGYFIVTP [Q7S], 0.036 ± 0.049; for SPISQSGFIPLGEILCLAISAMNSARKPVTQEALMEHLTTCFPGVPTPSQEILRHTLNTLVRERKIYPTPDGYFIVTP [Q7G], 0.063 ± 0.033. For the variant SPISQSCFIPLGEILCLAISAMNSARKPVTQEALMEHLTTCFPGVPTPSQEILRHTLNTLVRERKIYPTPDGYFIVTP [Q7C], the abundance fitness was -0.154 ± 0.1. Turning to SPISQSDFIPLGEILCLAISAMNSARKPVTQEALMEHLTTCFPGVPTPSQEILRHTLNTLVRERKIYPTPDGYFIVTP [Q7D], the abundance fitness was -0.032 ± 0.17. SPISQSNFIPLGEILCLAISAMNSARKPVTQEALMEHLTTCFPGVPTPSQEILRHTLNTLVRERKIYPTPDGYFIVTP [Q7N]: the abundance fitness is -0.015 ± 0.16. For SPISQSAFIPLGEILCLAISAMNSARKPVTQEALMEHLTTCFPGVPTPSQEILRHTLNTLVRERKIYPTPDGYFIVTP [Q7A], the abundance fitness came out at 0.043 ± 0.053.

As for SPISQSIFIPLGEILCLAISAMNSARKPVTQEALMEHLTTCFPGVPTPSQEILRHTLNTLVRERKIYPTPDGYFIVTP [Q7I], the abundance fitness was -0.068 ± 0.099. On to SPISQSEFIPLGEILCLAISAMNSARKPVTQEALMEHLTTCFPGVPTPSQEILRHTLNTLVRERKIYPTPDGYFIVTP [Q7E], for which the abundance fitness stood at 0.023 ± 0.17. Take SPISQSLFIPLGEILCLAISAMNSARKPVTQEALMEHLTTCFPGVPTPSQEILRHTLNTLVRERKIYPTPDGYFIVTP [Q7L]: the abundance fitness was -0.085 ± 0.052. As to SPISQSWFIPLGEILCLAISAMNSARKPVTQEALMEHLTTCFPGVPTPSQEILRHTLNTLVRERKIYPTPDGYFIVTP [Q7W], the abundance fitness was -0.152 ± 0.049. For SPISQSKFIPLGEILCLAISAMNSARKPVTQEALMEHLTTCFPGVPTPSQEILRHTLNTLVRERKIYPTPDGYFIVTP [Q7K] the value was -0.051 ± 0.086; for SPISQSTFIPLGEILCLAISAMNSARKPVTQEALMEHLTTCFPGVPTPSQEILRHTLNTLVRERKIYPTPDGYFIVTP [Q7T], -0.02 ± 0.072; for SPISQSVFIPLGEILCLAISAMNSARKPVTQEALMEHLTTCFPGVPTPSQEILRHTLNTLVRERKIYPTPDGYFIVTP [Q7V], -0.064 ± 0.041.

For SPISQSPFIPLGEILCLAISAMNSARKPVTQEALMEHLTTCFPGVPTPSQEILRHTLNTLVRERKIYPTPDGYFIVTP [Q7P], the abundance fitness was -0.021 ± 0.045. Turning to SPISQSHFIPLGEILCLAISAMNSARKPVTQEALMEHLTTCFPGVPTPSQEILRHTLNTLVRERKIYPTPDGYFIVTP [Q7H], the abundance fitness is -0.122 ± 0.085. For SPISQSQFCPLGEILCLAISAMNSARKPVTQEALMEHLTTCFPGVPTPSQEILRHTLNTLVRERKIYPTPDGYFIVTP [I9C] the value was 0.067 ± 0.059; for SPISQSQFLPLGEILCLAISAMNSARKPVTQEALMEHLTTCFPGVPTPSQEILRHTLNTLVRERKIYPTPDGYFIVTP [I9L], 0.03 ± 0.041. As to SPISQSQFHPLGEILCLAISAMNSARKPVTQEALMEHLTTCFPGVPTPSQEILRHTLNTLVRERKIYPTPDGYFIVTP [I9H], the abundance fitness was -0.243 ± 0.48.

On to SPISQSQFRPLGEILCLAISAMNSARKPVTQEALMEHLTTCFPGVPTPSQEILRHTLNTLVRERKIYPTPDGYFIVTP [I9R], for which the abundance fitness was found to be 0.03 ± 0.058. For SPISQSQFDPLGEILCLAISAMNSARKPVTQEALMEHLTTCFPGVPTPSQEILRHTLNTLVRERKIYPTPDGYFIVTP [I9D] the value was -0.035 ± 0.1. On to SPISQSQFAPLGEILCLAISAMNSARKPVTQEALMEHLTTCFPGVPTPSQEILRHTLNTLVRERKIYPTPDGYFIVTP [I9A], for which the abundance fitness was found to be 0.005 ± 0.066.

The values above are taken from the Human Domainome abundance scans (Beltran et al. 2025).
